The text below walks through data of patent US20250388703A1.

Assay [1] has as its target Human CD3 E/D dimer (heterodimeric construct of human CD3 epsilon and CD3 delta domains, ACROBiosystems CDD-H52Wa) (human) (UniProt P07766). Kind of assay: BLI, CD3E/D-His on anti-His probes, 1:1 fit. A general note: In BLI a coated tip is dipped into the sample, and binding shifts an interference pattern.
The target is the same in assay [2]. Kind of assay: column 'CD3 affinity (nM)'; assay not named on the sheet; BLI on human CD3 epsilon/delta-His per Example 1.
A further assay has as its target DLL3 (human) (UniProt Q9NYJ7). Briefly: not named on the sheet; Example 1 describes flow cytometry on CHO-K1 cells over-expressing DLL3. (In general: In flow cytometry, cells or beads pass a laser one at a time.)
Assay [3] addresses Human CD28-his (ACROBiosystems CD8-H52H3) (human) (UniProt P10747). Kind of assay: column 'CD28 affinity (nM)'; assay not named on the sheet; BLI on human CD28-His per Example 1.

Sequence of Human CD3 E/D dimer (heterodimeric construct of human CD3 epsilon and CD3 delta domains, ACROBiosystems CDD-H52Wa) (human) (P07766 23-126 limits assumed, stated change not applied, chain 1 of 2): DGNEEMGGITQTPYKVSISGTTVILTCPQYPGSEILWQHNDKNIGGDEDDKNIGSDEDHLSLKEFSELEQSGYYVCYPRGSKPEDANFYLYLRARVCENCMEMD
Sequence of Human CD3 E/D dimer (heterodimeric construct of human CD3 epsilon and CD3 delta domains, ACROBiosystems CDD-H52Wa) (human) (P04234 22-105 limits assumed, stated change not applied, chain 2 of 2, further chain): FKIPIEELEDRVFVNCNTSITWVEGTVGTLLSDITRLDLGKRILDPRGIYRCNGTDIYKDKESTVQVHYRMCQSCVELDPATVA
Sequence of DLL3 (human) (Q9NYJ7 27-492 limits assumed): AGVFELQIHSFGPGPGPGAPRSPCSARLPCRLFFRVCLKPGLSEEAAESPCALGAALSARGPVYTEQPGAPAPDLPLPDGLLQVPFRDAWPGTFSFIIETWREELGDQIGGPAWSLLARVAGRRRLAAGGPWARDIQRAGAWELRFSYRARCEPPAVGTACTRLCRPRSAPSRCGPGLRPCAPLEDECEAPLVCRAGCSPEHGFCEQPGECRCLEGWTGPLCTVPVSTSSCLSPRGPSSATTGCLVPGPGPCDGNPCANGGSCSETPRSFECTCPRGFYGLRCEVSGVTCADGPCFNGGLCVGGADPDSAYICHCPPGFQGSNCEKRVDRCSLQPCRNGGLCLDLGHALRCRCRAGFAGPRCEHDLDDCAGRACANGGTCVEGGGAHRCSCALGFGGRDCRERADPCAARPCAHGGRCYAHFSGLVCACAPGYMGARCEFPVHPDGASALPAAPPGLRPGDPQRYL

Regarding “AMG757 (Tarlatamab, BM) (bispecific antibody)”, in assay [1], the Fold reduction in CD3 affinity compared to Tarlatamab was 1 fold and the Kd stood at 2 nM. This substance gave a Kd in assay [2] of 3 nM. Further, the DLL3 affinity with DLL3 (human) turned out to be 0.2 nM.

As to 328_BM (SAR443216), the Kd stood at 4.32 nM in assay [3] and 22.9 nM in assay [2].

The Kd is a measure of binding affinity in units of concentration. A lower Kd goes with tighter binding.
